In article PMC7930385, “A Novel SOD1 Intermediate Oligomer, Role of Free Thiols and Disulfide Exchange” (Frontiers in Neuroscience, 2020):

Target: the molecule itself
Test: thioflavin-T fluorescence of fibrillation + electron microscopy; 40 μM apo protein in 10 mM potassium phosphate, pH 7.0, with TCEP (0-10 mM) and 40 μM thioflavin-T, 37°C, agitated at 300 rpm in 96-well plates with a Teflon ball; fibrils seen by negative-stain EM

B1: apo C6A/C111S human SOD1 (apo AS-SOD1) (enzyme)
chain: not shown
modifications: no N-terminal acetylation (expression in E. coli); metal-free (apo); C57-C146 disulfide intact at the start and reduced by TCEP in the reaction
notes: Cu/Zn superoxide dismutase 1 (SOD1), human, 153-residue subunit, both free cysteines removed (C6A, C111S); numbers count on: the mature protein (numbered from A1); The printed mass of AS S-S (15756.43 Da) appears to fit the 153-residue chain without Met and without acetyl; also called AS mutant; apo AS^S–S; source: E. coli, purified, demetallated by dialysis (apo)
binding result: binds
